Experimental data published in article PMC3851687 (2013).

Legend:
[1] = target: T1, humanized dPHD-HD1 (Pygo PHD F773W in complex with Lgs HD1) (Drosophila, UniProt Q9V9W8 747-804; Q961D9 321-353, F773W); assay: ITC; linked PHD-HD1 complex (uncleaved)
T1 sequence 1: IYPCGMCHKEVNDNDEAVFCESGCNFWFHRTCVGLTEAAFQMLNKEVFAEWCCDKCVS
T1 sequence 2: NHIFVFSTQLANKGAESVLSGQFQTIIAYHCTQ

[2] = target: T1, humanized dPHD-HD1 (Pygo PHD F773W in …); assay: ITC; linked PHD-HD1 complex (uncleaved linker)

Kd [1]: 7.5 µM
Kd [2]: 7.5 µM
B1: H3K4me2 15-mer (histone H3 tail peptide dimethylated at lysine 4) (peptide)
chain: ARTKQTARKSTGGKA
modifications: dimethyl-lysine at K4 (K4me2)
